± gives the half width of the 95% confidence interval.
Experiments:
[1] = folding stability dG unfold from trypsin proteolysis; higher = more stable
Method in brief: (§1)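 Sequencing followed digestion of designed mini-proteins with trypsin and chymotrypsin, each at 11 concentrations in threefold dilutions together with a no-protease condition. The mini-proteins were under 80 residues, had no cysteine, sat in a PA-tagged cDNA display construct, and were kept only if AlphaFold2 dimer inter-PAE was above 15. From the counts, Bayesian fitting gave K50, and unfolding free energy was derived against a sequence-predicted unfolded-state K50 and a shared folded-state K50, per protease or combined.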

[2] = folding stability dG unfold from chymotrypsin proteolysis; higher = more stable
Method in brief: as §1

[3] = folding stability dG unfold (combined trypsin and chymotrypsin); higher = more stable
Method in brief: as §1

Sequence	folding stability dG unfold [1]	folding stability dG unfold [2]	folding stability dG unfold [3]
SAGGPDIKIKWKIEVNPDNGMIWLTMEIEVPNPNGDFYKVRADIYIPIVNPDDGKFPIFIMLEVEPVPSAGG [r13_715_TrROS]	3.36 ± 0.3 kcal/mol	4.74 ± 0.25 kcal/mol	4.76 ± 0.2 kcal/mol
SAMMTPEERAFVERLRALFAERGGRIEIRFFEEPDRIEILVEEDDPELIREIREELARIPFPISRIVEESAG [r14_284_TrMRF]	2.434 ± 0.016 kcal/mol	3.695 ± 0.012 kcal/mol	3.33 ± 0.04 kcal/mol
SAGGSAGGSAGEMYKIKIFNKETGKELTLVFESEEEAKEALKKKFPNAKIEIEKISKEELSAGGSAGGSAGG [r11_978_TrROS_Hall]	2.38 ± 0.13 kcal/mol	3.1 ± 0.13 kcal/mol	2.8 ± 0.23 kcal/mol
SAGPVVLSPDDTVKIGKKELTFFSDGTVSVKYPDGTGESITVTVDPSSGNITLTETFTEPETGTTPVENSAG [r5_33_JUSTAS]	0.473 ± 0.15 kcal/mol	1.48 ± 0.075 kcal/mol	1.17 ± 0.16 kcal/mol
SAGDALKEAAKPGEEVTVRLRLTLTFTTETFTDDDGRERTVETVTVTVELEARVVAVDPETGELVIELRSAG [r5_5_TrROS_Hall]	2.56 ± 0.12 kcal/mol	4.19 ± 0.14 kcal/mol	3.52 ± 0.18 kcal/mol
SAGGSAGGSMETVTVLLNTPGTPVTFTFPVPAGVGEEAVKELVRKALPEVEIEVVEITTTPAASAGGSAGGS [r12_427_JUSTAS]	0.338 ± 0.073 kcal/mol	0.585 ± 0.21 kcal/mol	0.463 ± 0.15 kcal/mol
SAGGSAGGSAGGMIKTEDGYEVEIKIEVEEIPLPEGMSEEEKEKLKKIRIIRIEIKVTKKSAGGSAGGSAGG [r7_324_TrROS_Hall]	1.67 ± 0.12 kcal/mol	2.5 ± 0.33 kcal/mol	2.26 ± 0.36 kcal/mol
SAELEELLKKAEELAKKNNVEVEVEVKLELEPVKVTEYKLNKDGKPVEKKEEEELELRLEIKVKIRPKKSAG [r14_728_TrROS_Hall]	1.26 ± 0.2 kcal/mol	3.22 ± 0.2 kcal/mol	2.58 ± 0.35 kcal/mol
SAGGSAGGSAGGKTIRFKAKSPEEIAEKIKKGEEILTPDGKPVKITKVEPLPDGSVLITGSAGGSAGGSAGG [r11_48_TrMRF]	0.0865 ± 0.17 kcal/mol	0.588 ± 0.18 kcal/mol	0.46 ± 0.081 kcal/mol
SAGGSAGGSAGGLEIEFWFFFPDEGYMIEVEWERDPDGPIEPTKITEIHPMPDGQPNPGFSAGGSAGGSAGG [r11_750_TrROS]	1.81 ± 0.059 kcal/mol	2 ± 0.04 kcal/mol	1.94 ± 0.087 kcal/mol
SAGGMVTITLPEVNVEDPEVAEARMEEIAARLRAAGVTVTSASYDPEKGLATITVSAGGLSAAEVLASAGGS [r8_344_JUSTAS]	2.48 ± 0.042 kcal/mol	2.455 ± 0.015 kcal/mol	2.47 ± 0.037 kcal/mol
SAGGSAGGSAKKKKYKVKIKVINENGEIYEIDEIYFDEKTKKIYIKIKNKDGEEKVFEIELDSAGGSAGGSA [r18_370_TrROS_Hall]	2.4 ± 0.059 kcal/mol	3.74 ± 0.051 kcal/mol	3.25 ± 0.13 kcal/mol
SAGGSAGGSAKYILITAPKDNEEKVLEIAEELEKKYGVKLHKVERLPDGTVKALVEIFAPEKSAGGSAGGSA [r18_351_TrMRF]	0.057 ± 0.073 kcal/mol	0.674 ± 0.17 kcal/mol	0.438 ± 0.14 kcal/mol
SAGGSAGGSAGGEIKGKKFKIVKIVEVRYDKETKEFYVRIYIEDTNEIITVRLEDLPEELSAGGSAGGSAGG [r7_304_TrROS_Hall]	1.83 ± 0.077 kcal/mol	2.29 ± 0.025 kcal/mol	2.25 ± 0.18 kcal/mol
SAGGSAGGSAGMEFEVLEVIPPELLAEGGEITVGLPDGERLLVRVSPDGGVKEVRLLPPESAGGSAGGSAGG [r17_2_TrMRF]	0.811 ± 0.12 kcal/mol	-0.435 ± 0.22 kcal/mol	0.236 ± 0.16 kcal/mol
SAGGSAGGSAMTVRFGKPEELEKAEELAEEIAKAHPGKPIKVTVTKDPNNPDEYTVTITEESAGGSAGGSAG [r3_131_JUSTAS]	-0.24 ± 0.16 kcal/mol	0.544 ± 0.09 kcal/mol	0.289 ± 0.14 kcal/mol
SAGGSASLESEDVEEVSTSTSVVPLPDGGTATVTTTTYRHKEPGTLVTRTTTTFPGGATTTTVTLLSAGGSA [r15_188_JUSTAS]	1.69 ± 0.039 kcal/mol	2.04 ± 0.022 kcal/mol	1.91 ± 0.025 kcal/mol
SAGGSAGGSAFIRAEYKLPENKVLEIEIPVPESVLKKMSIEEVKELFKKLGLPDDVKIEFYDESAGGSAGGS [r12_742_TrMRF]	1.43 ± 0.041 kcal/mol	1.78 ± 0.15 kcal/mol	1.66 ± 0.098 kcal/mol
SAGGSNFKPLEAEIYRNPDGKDVVQIMITFPDPNGKPFTVNIWIYPDGKIKISVYYNGKKEEIEIPSAGGSA [r2_182_TrROS]	1.95 ± 0.13 kcal/mol	3.57 ± 0.12 kcal/mol	2.96 ± 0.18 kcal/mol
SAGGSAGGIKPGETVLIVFKDKPEILVFPPGMSEEERKAFPGAKFILVKVEKPELTEEELKALESAGGSAGG [r6_830_TrROS_Hall]	-0.623 ± 0.13 kcal/mol	-0.275 ± 0.18 kcal/mol	-0.232 ± 0.16 kcal/mol
SAGGKEYRNPENGQKIPPGDTEEEREKHAREHAKPVIVPIEIPIVIKFGDVIFPIPITFEIPLTPGGSAGGS [r16_387_TrROS]	0.0408 ± 0.054 kcal/mol	-0.0327 ± 0.28 kcal/mol	0.058 ± 0.32 kcal/mol

Sequence	folding stability dG unfold [1]	folding stability dG unfold [2]	folding stability dG unfold [3]
SAGGSAGGSAGMVFLDPETRLLLVVHPNGEPELVLLEDGRAVLFHPSTGERREIPLAEIGSAGGSAGGSAGG [r11_297_TrMRF]	-0.195 ± 0.13 kcal/mol	0.318 ± 0.12 kcal/mol	0.263 ± 0.12 kcal/mol
SAGTLTLELEVEVDGVLVRVRVEVRPGEEVEVRVEVEVRELPPEPEVEEEEKVELSEEDLERLRRLAEESAG [r5_958_TrROS_Hall]	2.46 ± 0.071 kcal/mol	3.4 ± 0.086 kcal/mol	3.05 ± 0.1 kcal/mol
SMPEKYIVRVEVRGRDGKTVTFEAEATVDSSDFDDFIEAILEAPGLEDADEVRFYVYRLGTGRPEEFTVPSA [r9_97_TrMRF]	2.01 ± 0.069 kcal/mol	3.03 ± 0.06 kcal/mol	2.7 ± 0.069 kcal/mol
SAGGSAGGSAGKKIPKKIIPKINLKVELVKSKIYYDKKKKKIVKIEYEFKITYPNGFKATSAGGSAGGSAGG [r11_890_TrMRF]	1.44 ± 0.053 kcal/mol	1.97 ± 0.11 kcal/mol	1.83 ± 0.2 kcal/mol
SAGGDIKFEIGLELLPDGILVIRGSVEVRMGGQSVTYEFIIIVKIKPIPPPPPPPKPKYNPEDGKWKSAGGS [r8_269_TrROS]	2.32 ± 0.076 kcal/mol	2.89 ± 0.11 kcal/mol	2.58 ± 0.22 kcal/mol
SAGGSAGGMTVTFTLPATAPENALENVTATVTYNGKTYLVKITATPVPDGPFVVVTAELVEYDPSAGGSAGG [r6_415_TrMRF]	3.02 ± 0.083 kcal/mol	3.68 ± 0.14 kcal/mol	3.34 ± 0.17 kcal/mol
SAGGSAGGSAGGSLETRPVLLILKDEEGKPYAVARLEVRELPNGGVEVTVTEIVPAEELSAGGSAGGSAGGS [r4_117_TrMRF]	0.912 ± 0.035 kcal/mol	1.5 ± 0.095 kcal/mol	1.36 ± 0.11 kcal/mol
SAGGSAGGSAMVTIAFPDGTVVEIPASLSEEEVEAEAERLAKERAAGVRPVDVTVESIEPPGSAGGSAGGSA [r18_213_JUSTAS]	0.356 ± 0.035 kcal/mol	1.43 ± 0.062 kcal/mol	1.07 ± 0.069 kcal/mol
SAGGSFWVFVIEISVKFEQYGDPDGNWKFEIEKVDVKITEIIPIPPEMMDKLREAKAEGMEPEEILSAGGSA [r2_327_TrROS]	1.65 ± 0.15 kcal/mol	3.49 ± 0.11 kcal/mol	3.09 ± 0.39 kcal/mol
SAGGSAGGSPIEEIVAELKVPPGTTVKFPDGSTITLNSREDLLKLAKEGYPPEKLKDITVEAVSAGGSAGGS [r12_430_JUSTAS]	0.308 ± 0.071 kcal/mol	1.08 ± 0.059 kcal/mol	0.856 ± 0.089 kcal/mol
SAGGSAGGSAGGGLVPIPVNAILLDENGVPKGTFDGYPLLKAGIPLEEFAKKYGFKVETSAGGSAGGSAGGS [r10_153_TrMRF]	-1.08 ± 0.37 kcal/mol	-0.57 ± 0.24 kcal/mol	-0.552 ± 0.16 kcal/mol
SAGGSAMQQLDITKTKWDPNTGTLSVTAKDPLTGEVTTYTIPRNGPTLNFPPGAELKSVETEPPPLSAGGSA [r15_959_JUSTAS]	0.0912 ± 0.28 kcal/mol	-0.368 ± 0.37 kcal/mol	-0.0792 ± 0.27 kcal/mol
SAGGGPLKPILLKVTAKVEKNGKLLEVEAEIAVPLPNKPITLEEIRKILEEALPPDVKIVSLELDPESAGGS [r16_407_TrMRF]	2.99 ± 0.2 kcal/mol	2.6 ± 0.075 kcal/mol	2.67 ± 0.21 kcal/mol
SAGGSKLKNLKSKPFPITFENGGKVTLNVVNIPKSSKPVVNITVIEPNSGKKKTFTVPLEEAKNLLSAGGSA [r2_366_TrMRF]	0.394 ± 0.071 kcal/mol	1.16 ± 0.12 kcal/mol	0.869 ± 0.089 kcal/mol
QRTVYIPIRGMPPDQMVDMIRMALRQAREKGHPNRTIRIWMPGPPEQRERARRYIKELADEPGLNVTIEGWS [r1_387_TrROS]	1.71 ± 0.029 kcal/mol	1.85 ± 0.08 kcal/mol	1.84 ± 0.055 kcal/mol
SAGGSAGGSAGGYFIRINNGRTFPFPSPEDAEEIVKTIARPFGHPDMTIEIYRMPPEQFPSAGGSAGGSAGG [r7_839_TrROS]	-0.0675 ± 0.22 kcal/mol	-0.1 ± 0.24 kcal/mol	0.0194 ± 0.18 kcal/mol
SAGGSAGGSAMVITKTTASVEEVKEEIKKEYPNANVKITKVSTSADGKTTYKIEIKIPKNNKSAGGSAGGSA [r18_464_JUSTAS]	0.586 ± 0.067 kcal/mol	2.5 ± 0.033 kcal/mol	2 ± 0.16 kcal/mol
SAGGSMKVEVTVTETSTLGDGTRTYTVAVLIDGTPLTFTFPFTSEEEFREAVEEWAKERGVEITLTPSSAGG [r13_750_JUSTAS]	3.7 ± 0.084 kcal/mol	4.54 ± 0.049 kcal/mol	4.25 ± 0.14 kcal/mol
SAGGSAGGRIPLEDIEIVEVSEETLPNTEKVYHVLVKLPEGYIEATFLPNTGLEEAVERLLALESAGGSAGG [r6_232_TrMRF]	0.963 ± 0.053 kcal/mol	0.493 ± 0.097 kcal/mol	0.788 ± 0.067 kcal/mol
SAGGKVSVEVRGNGPGSYVALWLPGPGTVIAREFEDGDRFDDLPEDAEPSRVVFFGYDGVPEEFELGSAGGS [r8_487_TrMRF]	0.32 ± 0.032 kcal/mol	0.487 ± 0.071 kcal/mol	0.449 ± 0.043 kcal/mol
SAGGATIELEVLLEDGTLVRVRAELDEDGRLVSVEVEVRRLEPPPPPPPPERTETRVETRTEYRPEESAGGS [r8_270_TrROS_Hall]	2.73 ± 0.35 kcal/mol	3.23 ± 0.52 kcal/mol	2.95 ± 0.48 kcal/mol
